The target of the series is T1, rPcDp1 (recombinant Dp1) (Pseudosciaena crocea (large yellow …, UniProt D2CFQ6 1-412)).
T1 sequence: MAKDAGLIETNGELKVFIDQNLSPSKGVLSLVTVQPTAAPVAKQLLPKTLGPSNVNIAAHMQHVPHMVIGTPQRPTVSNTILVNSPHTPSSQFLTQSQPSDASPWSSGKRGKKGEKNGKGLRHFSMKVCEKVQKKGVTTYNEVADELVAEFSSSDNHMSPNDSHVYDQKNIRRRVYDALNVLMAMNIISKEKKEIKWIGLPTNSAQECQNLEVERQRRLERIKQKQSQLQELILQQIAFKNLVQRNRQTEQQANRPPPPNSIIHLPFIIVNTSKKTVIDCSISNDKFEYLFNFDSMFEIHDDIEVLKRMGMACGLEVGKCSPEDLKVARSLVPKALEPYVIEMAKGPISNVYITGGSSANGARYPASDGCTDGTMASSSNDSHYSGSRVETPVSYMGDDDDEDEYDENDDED
The series is described as follows: EMSA. (A gel shift assay detects complexes by their altered migration in electrophoresis.)

B1: wE2F (WE2Fsite) (dsDNA)
DNA 1: GAGATGACGTAGTTTTCGCGCGAAACTAG
DNA 2: CTAGTTTCGCGCGAAAACTACGTCATCTC
As for B1, the binding result was “binds”.

Values taken from publication PMC7921785.
